Experimental findings from patent US20140371150A1 (UNIVERSITE DE NANTES, published 2014) are described below.

Experiment [1] concerns the target T1, mouse RANK on cells (murine CD11b+ monocytes; RAW264.7 cells) (mouse, UniProt O35305 31-625).
T1 sequence (looked up): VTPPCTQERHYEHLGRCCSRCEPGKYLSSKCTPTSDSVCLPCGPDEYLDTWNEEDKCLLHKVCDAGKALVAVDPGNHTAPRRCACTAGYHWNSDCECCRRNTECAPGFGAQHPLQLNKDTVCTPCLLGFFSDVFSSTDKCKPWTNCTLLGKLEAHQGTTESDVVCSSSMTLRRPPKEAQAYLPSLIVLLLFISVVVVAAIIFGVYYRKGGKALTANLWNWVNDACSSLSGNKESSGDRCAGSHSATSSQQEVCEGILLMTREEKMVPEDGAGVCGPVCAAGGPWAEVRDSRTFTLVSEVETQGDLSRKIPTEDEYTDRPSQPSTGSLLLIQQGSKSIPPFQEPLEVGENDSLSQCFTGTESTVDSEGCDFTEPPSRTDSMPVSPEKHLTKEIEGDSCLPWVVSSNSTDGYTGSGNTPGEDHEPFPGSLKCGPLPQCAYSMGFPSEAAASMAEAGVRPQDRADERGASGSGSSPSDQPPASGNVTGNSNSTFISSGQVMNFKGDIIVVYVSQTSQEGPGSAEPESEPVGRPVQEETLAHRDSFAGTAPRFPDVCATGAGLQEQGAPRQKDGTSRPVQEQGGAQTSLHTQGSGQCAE
Nature of the experiment: cell-based or functional assay.

The target in experiment [2] is T2, human RANK on cells (human CD14+ monocytes; HEK-RANK cells) (human, UniProt Q9Y6Q6 30-616).
T2 sequence (looked up): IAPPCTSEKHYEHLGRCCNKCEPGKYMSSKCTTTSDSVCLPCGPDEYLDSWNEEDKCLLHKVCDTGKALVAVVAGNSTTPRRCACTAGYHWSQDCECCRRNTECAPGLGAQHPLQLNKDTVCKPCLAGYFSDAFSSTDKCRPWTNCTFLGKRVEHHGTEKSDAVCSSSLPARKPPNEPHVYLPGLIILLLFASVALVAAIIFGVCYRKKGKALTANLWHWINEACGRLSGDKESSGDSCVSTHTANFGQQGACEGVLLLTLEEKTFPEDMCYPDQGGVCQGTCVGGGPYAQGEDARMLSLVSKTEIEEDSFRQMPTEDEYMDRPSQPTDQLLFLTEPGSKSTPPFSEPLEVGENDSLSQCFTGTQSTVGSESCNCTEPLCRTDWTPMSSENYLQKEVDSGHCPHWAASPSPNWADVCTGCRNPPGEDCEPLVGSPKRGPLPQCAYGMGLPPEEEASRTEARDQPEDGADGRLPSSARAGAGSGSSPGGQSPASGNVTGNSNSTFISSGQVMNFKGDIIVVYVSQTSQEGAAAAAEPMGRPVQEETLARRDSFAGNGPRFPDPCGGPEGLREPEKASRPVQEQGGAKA
Nature of the experiment: cell-based or functional assay.

Experiment [3] deals with T3, RANK-Fc carrier-free (R&D Systems) (human, UniProt Q9Y6Q6 30-212).
T3 construct: Bought from R&D Systems; Immobilized on the sensor chip for SPR and used in solution for NMR; also called hRANK; RANK-Fc CF; not shown: Fc part of the bought fusion protein
T3 sequence (looked up): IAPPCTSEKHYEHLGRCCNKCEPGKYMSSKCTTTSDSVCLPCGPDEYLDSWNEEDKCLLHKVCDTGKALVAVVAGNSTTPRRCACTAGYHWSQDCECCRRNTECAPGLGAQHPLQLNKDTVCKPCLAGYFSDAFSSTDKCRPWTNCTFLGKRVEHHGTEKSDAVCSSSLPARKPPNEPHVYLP
Nature of the experiment: SPR (BIAcore 3000), RANK-Fc immobilized, single cycle kinetics, 1:1 Langmuir model. Here is the method:
Biosensor experiments were carried out on a BIAcore 3000 instrument (BIAcore) as published previously (Baud'Huin et al. 2009). Recombinant purified RANKL (2 μg/mL in 5 mM maleate, pH 5.75) or RANK-Fc carrier-free (5 μg/mL in sodium acetate buffer, pH 5.0) were covalently immobilized to the dextran matrix of a CMS sensor chip (BIAcore) at a flow rate of 5 μL/min. Immobilization levels ranging from 400 to 3000 Response Units (RU) for RANKL or 5000 RU for RANK were obtained. Binding assays were performed at 25° C. in 10 mM Hepes buffer, pH 7.4. The association phase was 180 seconds followed by a dissociation phase in the same buffer. Polypeptides binding studies to RANK or RANKL were determined using single cycle kinetics, starting with 100 μM of the polypeptide of interest followed by 2-fold serial dilutions (ranging from 100 to 0.78 μM). The sensorgrams were fitted to calculate the equilibrium-dissociation constants using the Langmuir 1:1 model with BiaEval 4.1 software (BIAcore). RANK-Fc CF, RANKL and OPG carrier-free were obtained from R&D Systems (Minneapolis, Minn., USA).
Binding of the polypeptides to RANK was studied using surface plasmon resonance (FIG. 1C). Several polypeptides bound to immobilized RANK in a dose-dependent manner, presented here is Pep1 (SEQ ID NO: 33).
A general note: Surface plasmon resonance follows binding to a sensor surface in real time, without labels.

B1: Pep8 (peptide)
peptide: NVLKLCSGE
notes: Pegylated forms (N-(PEG)5, N-(PEG)8) were tested only in gene expression assays and in vivo; also called polypeptide Pep8
By Kd is commonly meant a measure of binding affinity in units of concentration. Lower therefore signals higher affinity. For orientation: koff means the first-order rate constant of dissociation. Low readings indicate slow dissociation, high ones fast dissociation. By kon is commonly meant the rate constant with which the complex forms. Read a low kon as slower complex formation. Consider B1, for which the “IC50 of RANKL-induced osteoclast formation (TRAP-positive multinucleated cells), murine CD11b+ cells” value in experiment [1] was determined as 30 µM. Besides, the “IC50 of RANKL-induced osteoclast formation (TRAP-positive multinucleated cells), human CD14+ cells” value in experiment [2] is 40 µM. In experiment [3], this molecule had a Kd of 10.5 µM, a koff of 0.0052 s⁻¹ and a kon of 495 M⁻¹ s⁻¹.

B2: Pep1 (peptide)
peptide: ELASYIIITQLG
notes: Synthetic designed peptide; the SPR text mentions no pegylation; also called polypeptide Pep1
In experiment [3], B2 gave a Kd of 20.6 µM and a koff of 0.000278 s⁻¹.
